The record followed here is article PMC3924328, “Structure of the S100A4/myosin-IIA complex” (BMC Structural Biology, 2013).

The star is where a group is joined. FITC = O=C1OC2(c3ccc(O)cc3Oc3cc(O)ccc32)c2ccc(NC(=S)*)cc21; Ahx = NCCCCCC(=O)O

Broadly, the Kd is the equilibrium constant for the complex coming apart. Lower therefore signals tighter binding. Broadly, the stoichiometry N is a count of units in the complex or per binding partner. What is called IC50 is the concentration that gives 50% inhibition. A low value points to greater potency.

Sequences and labels used below:
B1: S100A4 (wild-type, full-length, human) (natural protein)
chain: not shown
notes: Dimer; also called wild-type S100A4; Ca^2+-S100A4; source: E. coli BL21(DE3)*, purified (ammonium sulfate, Phenyl-Sepharose, Q XL anion exchange); 15N-labelled from M9 medium for NMR

Series [1] deals with the molecule itself. Kind of series: AUC; sedimentation equilibrium, 22°C, interference optics; 20 mM Tris pH 7.5, 150 mM KCl, 0.5 mM CaCl2, 1 mM TCEP; MIIA^1851-1960 alone and mixed with S100A4 at 0.5:1 and 1:1 (dimer:dimer); 12,000, 20,000 and 28,000 rpm.
For series [2], the target named is T1, S100A4Δ8C (S100A4 with the C-terminal eight amino acids deleted) (human, UniProt P26447 1-93).
T1 construct: S100A4, human, codon-optimized, untagged, in pET11b; deletion of the C-terminal eight amino acids (residues 94-101 absent); Dimer; also called Ca^2+-S100A4Δ8C; apo-S100A4Δ8C; source: E. coli BL21(DE3)*, purified (ammonium sulfate, Phenyl-Sepharose, Q XL anion exchange; Superdex 75 for crystallization)
Kind of series: fluorescence polarisation; direct anisotropy titration; 50 nM FITC-MIIA^1904-1927, 0-30 μM S100A4Δ8C dimer; 22°C; 20 mM Tris pH 7.5, 150 mM KCl, 1 mM DTT, 0.5 mM CaCl2, 0.5 mg/ml BSA; single site saturation fit. Particulars: both partners purified. In general terms: In fluorescence polarisation assays a small probe gives low polarisation when free and higher when bound to something large.

Series [3] has as its target B1. Kind of series: AUC; sedimentation velocity, 22°C, 53,000 rpm; 20 mM Tris pH 7.5, 150 mM KCl, 0.5 mM CaCl2, 1 mM TCEP; each protein alone and MIIA^1851-1960 dimer:S100A4 dimer at 0.5:1, 1:1, 1.5:1. Particulars: both partners purified.
The target of series [4] is B1. Kind of series: fluorescence polarisation; competition anisotropy; 50 nM FITC-MIIA^1904-1927, 0.3 μM S100A4 dimer, 0-10 μM MIIA^1851-1960 dimer; 22°C; 20 mM Tris pH 7.5, 150 mM KCl, 1 mM DTT, 0.5 mM CaCl2, 0.5 mg/ml BSA. Particulars: both partners purified.
In series [5] the target is B1. Kind of series: AUC; sedimentation equilibrium, 22°C, interference optics; 20 mM Tris pH 7.5, 150 mM KCl, 0.5 mM CaCl2, 1 mM TCEP; MIIA^1851-1960 alone and mixed with S100A4 at 0.5:1 and 1:1 (dimer:dimer); 12,000, 20,000 and 28,000 rpm. The note with it: both partners purified.

T1 sequence (P26447 1-93, stated change not applied): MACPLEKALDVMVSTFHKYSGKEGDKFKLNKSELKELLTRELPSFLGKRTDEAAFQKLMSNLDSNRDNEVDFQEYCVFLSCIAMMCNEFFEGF

With B1, the binding result in series [1] is “binds”.

B2: FITC-MIIA^1904-1927 peptide (peptide)
peptide: {FITC-Ahx}-TETADAMNREVSSLKNKLRRGDLP-NH2
SMILES: CSCC[C@H](NC(=O)[C@H](C)NC(=O)[C@H](CC(=O)O)NC(=O)[C@H](C)NC(=O)[C@@H](NC(=O)[C@H](CCC(=O)O)NC(=O)[C@@H](NC(=O)CCCCCNC(=S)Nc1ccc2c(c1)C(=O)OC21c2ccc(O)cc2Oc2cc(O)ccc21)[C@@H](C)O)[C@@H](C)O)C(=O)N[C@@H](CC(N)=O)C(=O)N[C@@H](CCCNC(=N)N)C(=O)N[C@@H](CCC(=O)O)C(=O)N[C@H](C(=O)N[C@@H](CO)C(=O)N[C@@H](CO)C(=O)N[C@@H](CC(C)C)C(=O)N[C@@H](CCCCN)C(=O)N[C@@H](CC(N)=O)C(=O)N[C@@H](CCCCN)C(=O)N[C@@H](CC(C)C)C(=O)N[C@@H](CCCNC(=N)N)C(=O)N[C@@H](CCCNC(=N)N)C(=O)NCC(=O)N[C@@H](CC(=O)O)C(=O)N[C@@H](CC(C)C)C(=O)N1CCC[C@H]1C(N)=O)C(C)C
notes: source: synthetic peptide (Bio-Synthesis Inc.)
Consider B2, for which, in series [2], the Kd worked out at 510 ± 50 nM.

B3: MIIA^1851-1960 (C-terminal fragment of the human myosin-IIA heavy chain) (domain or fragment, UniProt P35579 1851-1960, looked up)
chain: VDDERRNAEQYKDQADKASTRLKQLKRQLEEAEEEAQRANASRRKLQRELEDATETADAMNREVSSLKNKLRRGDLPFVVPRRMARKGAGDGSDEEVDGKADGAEAKPAE
notes: about 75 residues of the coiled-coil and the entire C-terminal tailpiece; A dimer when alone (sedimentation equilibrium); Printed monomer mass 12,397.5 Da; source: E. coli BL21(DE3)*, purified (High Q Sepharose, hydroxyapatite, Sephacryl S200)
For the molecule B3, the entries for the “stoichiometry N” value in series [3], in series [5] and in series [1] were 1 MIIA^1851-1960 polypeptide per S100A4 dimer, 1 MIIA^1851-1960 polypeptide chain per S100A4 dimer and 2, respectively. In series [4], this molecule returned an IC50 of 21.2 nM.
